Measurements reported in patent US20240174744A1 (SCIRHOM, published 2024).

T1: hiR2-FL-WT-FLAG (human iRhom2 full length wild type C-terminally tagged with the triple-FLAG epitope) (human, UniProt Q6PJF5 1-856)
T1 construct: also called expressed by MEF-DKO-hiR2-FL-WT-FLAG cells
T1 sequence: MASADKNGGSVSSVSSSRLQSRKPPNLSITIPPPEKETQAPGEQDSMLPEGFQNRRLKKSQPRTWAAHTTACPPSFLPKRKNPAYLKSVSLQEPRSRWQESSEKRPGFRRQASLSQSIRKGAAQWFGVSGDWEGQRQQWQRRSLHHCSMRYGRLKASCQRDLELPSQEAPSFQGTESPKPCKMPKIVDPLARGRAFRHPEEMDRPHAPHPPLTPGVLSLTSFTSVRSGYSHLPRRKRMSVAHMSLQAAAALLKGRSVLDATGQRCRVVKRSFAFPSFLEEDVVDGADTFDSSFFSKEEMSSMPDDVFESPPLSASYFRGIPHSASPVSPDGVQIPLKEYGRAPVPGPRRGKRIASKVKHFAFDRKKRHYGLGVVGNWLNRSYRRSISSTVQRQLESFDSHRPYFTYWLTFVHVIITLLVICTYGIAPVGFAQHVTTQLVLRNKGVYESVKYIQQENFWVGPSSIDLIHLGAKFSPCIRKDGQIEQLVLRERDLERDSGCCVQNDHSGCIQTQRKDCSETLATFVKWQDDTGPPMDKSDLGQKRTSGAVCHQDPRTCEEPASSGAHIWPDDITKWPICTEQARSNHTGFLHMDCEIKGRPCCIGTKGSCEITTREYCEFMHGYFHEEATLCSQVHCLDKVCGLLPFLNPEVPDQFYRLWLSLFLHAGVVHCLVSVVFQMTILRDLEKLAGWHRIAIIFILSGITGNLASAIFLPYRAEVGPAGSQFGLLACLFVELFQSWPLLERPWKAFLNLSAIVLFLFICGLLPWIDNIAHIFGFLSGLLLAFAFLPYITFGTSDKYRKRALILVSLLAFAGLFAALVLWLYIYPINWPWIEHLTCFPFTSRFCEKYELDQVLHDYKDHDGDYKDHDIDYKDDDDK


Target: T1, hiR2-FL-WT-FLAG (human iRhom2 full …)
Test: FACS, MEF-DKO-hiR2-FL-WT-FLAG cells, 3 µg/ml
Protocol: In brief, immortalized MEF-DKO-EV control cells, MEF-DKO-hiR2-FL-WT-FLAG cells and MEF-DKO-miR2-FL-WT-FLAG cells were harvested with 10 mM EDTA in PBS, washed and resuspended in FACS buffer (PBS, 3% FBS, 0.05% sodium azide), and seeded in Nunc U-bottom 96-well plates (Thermo Fisher Scientific, USA) at approximately 3×10⁵ cells per well. To pellet cells and remove supernatants, the plates were centrifuged at 1,500 rpm and 4° C. for 3 minutes. For primary staining, cells were resuspended in 100 μl per well of either FACS buffer alone (controls), mouse monoclonal anti-FLAG IgG (Sigma-Aldrich, USA) at 3 μg/ml FACS buffer or the antibodies of the present disclosure also at 3 μg/ml FACS buffer and incubated on ice for 1 hour. Afterwards, plates were centrifuged at 1,500 rpm and 4° C. for 3 minutes and washed twice with 200 μl per well of FACS buffer. For secondary staining, cells were spun down and resuspended in 100 μl per well of PE-conjugated goat anti-mouse IgG F(ab′)2 detection fragment (Dianova, Germany) diluted 1:100 in FACS buffer. Protected from light, the cell suspensions were incubated on ice for 1 hour. Plates were then centrifuged at 1,500 rpm and 4° C. for 3 minutes and washed three times with 200 μl per well of FACS buffer. Finally, cells were resuspended in 150 μl per well of FACS buffer and analyzed using a BD Accuri™ C6 Plus flow cytometer (Becton Dickinson, Germany).

| Binder | binding result |
| --- | --- |
| antibody 47 (antibody, V domains shown, Mouse IgG, kappa light chain; also called clone #47) VH: QVQLQQSGAELVRPGTSVKVSCKASGYAFTNYLIEWVKQRPGQGLEWIGVINPGSGFTNYNEKFKGKAILNADKSSSTAYMQLISLTSEDSAVYFCARDLKRAMDHWGQGTSVTVSS VL: DIQMTQSPASQSASLGESVTITCLASQTIGTWLAWYQQKPGKSPQLLIHAATSLADGVPSRFSGSGSGTKFSFKISSLQAEDFVSYYCQQIYSSPYTFGGGTKLEIK | binds |
| antibody 51 (antibody, V domains shown, Mouse IgG, kappa light chain; also called clone #51) VH: QVQLQQSGAELVKPGASVKISCKASGYTFSNYWMNWVKQRPGKGLEWIGQIYPGDGDTKYNGKFKNKATLTADKSSSTAYMQFSSLTSEDSAVYFCARGDLVFVYWGLGTLVTVSA VL: DVQITQSPSYLAVSPGETITINCRASKNIRKYLAWYQEKPGKTNKLLIYSGSTSQSGVPSRFSGSGSGTDFTLTISSLEPEDFAMYYCQQHNEYPYTFGGGTKLEIK | binds |
